Biological target: RNF216, Q9NWF9-3
Sequence (Q9NWF9 379-866): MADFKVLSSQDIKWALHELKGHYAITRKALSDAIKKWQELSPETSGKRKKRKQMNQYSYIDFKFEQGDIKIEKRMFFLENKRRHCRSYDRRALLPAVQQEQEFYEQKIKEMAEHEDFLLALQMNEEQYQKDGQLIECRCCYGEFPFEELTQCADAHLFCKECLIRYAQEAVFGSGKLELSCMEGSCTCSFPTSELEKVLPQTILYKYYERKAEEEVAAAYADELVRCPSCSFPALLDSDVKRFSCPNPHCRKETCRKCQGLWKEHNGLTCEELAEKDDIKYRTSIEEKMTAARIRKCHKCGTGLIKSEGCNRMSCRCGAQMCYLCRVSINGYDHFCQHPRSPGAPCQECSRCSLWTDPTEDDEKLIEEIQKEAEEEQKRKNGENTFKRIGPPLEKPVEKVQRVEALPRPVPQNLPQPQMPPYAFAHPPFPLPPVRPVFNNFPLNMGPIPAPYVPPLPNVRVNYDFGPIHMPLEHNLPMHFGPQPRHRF

Virion infectivity factor (Human immunodeficiency virus type 1 group M subtype B (isolate NY5) (HIV-1)), P12504 Q105A;L106A;I107A
effect of a mutation on the interaction: disrupting interaction

Reference: IntAct's records for PubMed 12600646
